# According to publication PMC9482650, “Quantitative fragmentomics allow affinity mapping of interactomes” (Nature Communications, 2022):
# T1: DLG3_2, Q92796
# T1 sequence (Q92796 221-321, limits assumed, looked up): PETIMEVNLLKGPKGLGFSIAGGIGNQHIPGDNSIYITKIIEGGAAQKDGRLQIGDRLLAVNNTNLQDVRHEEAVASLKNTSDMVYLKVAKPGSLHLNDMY
# T2: RHPN1, Q8TCX5
# T2 sequence (Q8TCX5 508-602, limits assumed, looked up): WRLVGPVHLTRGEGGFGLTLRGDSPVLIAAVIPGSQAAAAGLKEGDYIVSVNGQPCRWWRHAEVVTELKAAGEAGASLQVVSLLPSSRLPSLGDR
# T3: NHERF3_3, Q5T2W1
# T3 sequence (Q5T2W1 238-333, limits assumed, looked up): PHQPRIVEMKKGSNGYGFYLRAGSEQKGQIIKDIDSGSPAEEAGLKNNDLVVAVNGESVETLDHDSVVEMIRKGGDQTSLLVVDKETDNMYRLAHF
# T4: FRMPD1, Q5SYB0
# T4 sequence (Q5SYB0 52-145, limits assumed, looked up): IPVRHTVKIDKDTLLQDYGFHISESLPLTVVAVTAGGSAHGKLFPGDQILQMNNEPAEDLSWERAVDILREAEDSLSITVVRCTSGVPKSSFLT
# T5: ARHGEF11, O15085
# T5 sequence (O15085 42-136, limits assumed, looked up): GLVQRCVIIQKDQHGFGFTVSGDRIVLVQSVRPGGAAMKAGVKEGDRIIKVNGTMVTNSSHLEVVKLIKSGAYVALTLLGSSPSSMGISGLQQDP
# T6: SNTA1, Q13424
# T6 sequence (Q13424 82-180, limits assumed, looked up): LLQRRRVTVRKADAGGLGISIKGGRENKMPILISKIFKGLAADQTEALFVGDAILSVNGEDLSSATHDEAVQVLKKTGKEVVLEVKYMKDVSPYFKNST
# T7: LIN7B, Q9HAP6
# T7 sequence (Q9HAP6 88-185, limits assumed, looked up): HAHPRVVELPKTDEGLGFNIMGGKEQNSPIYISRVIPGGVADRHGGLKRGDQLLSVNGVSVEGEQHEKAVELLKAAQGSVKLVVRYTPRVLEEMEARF
# T8: HTRA3, P83110
# T8 sequence (P83110 354-453, limits assumed, looked up): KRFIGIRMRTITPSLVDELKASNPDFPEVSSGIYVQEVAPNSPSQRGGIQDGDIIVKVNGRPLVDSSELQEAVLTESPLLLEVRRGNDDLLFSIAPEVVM
# T9: APBA1_1, Q02410
# T9 sequence (Q02410 651-752, limits assumed, looked up): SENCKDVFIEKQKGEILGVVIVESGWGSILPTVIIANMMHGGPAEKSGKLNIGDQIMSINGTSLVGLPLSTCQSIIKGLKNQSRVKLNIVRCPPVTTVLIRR
# Experiments:
# Assay in all cases: holdup assay
# Design in all cases: key: below the threshold = too weak to quantify, mostly under pKd 3.1 to 4
# Conditions in all cases: plain residues with an end cap or a label only (N-terminal biotin on a linker: ado-ado)
# GIPC2, Q8TF65 = target: GIPC2, Q8TF65
# FRMPD2_1, Q68DX3 = target: FRMPD2_1, Q68DX3
# Inadl_6, Q8NI35 = target: Inadl_6, Q8NI35
# DLG3_2, Q92796 = target: T1, DLG3_2, Q92796
# MAGI3_2, Q5TCQ9 = target: MAGI3_2, Q5TCQ9
# NHERF4_4, Q86UT5 = target: NHERF4_4, Q86UT5
# RHPN1, Q8TCX5 = target: T2, RHPN1, Q8TCX5
# FRMPD2_3, Q68DX3 = target: FRMPD2_3, Q68DX3
# LNX1_3, Q8TBB1 = target: LNX1_3, Q8TBB1
# MAGI1_2, Q96QZ7 = target: MAGI1_2, Q96QZ7
# NHERF3_3, Q5T2W1 = target: T3, NHERF3_3, Q5T2W1
# GOPC, Q9HD26 = target: GOPC, Q9HD26
# FRMPD1, Q5SYB0 = target: T4, FRMPD1, Q5SYB0
# MAST2, Q6P0Q8 = target: MAST2, Q6P0Q8
# Inadl_8, Q8NI35 = target: Inadl_8, Q8NI35
# ARHGEF11, O15085 = target: T5, ARHGEF11, O15085
# GORASP1, Q9BQQ3 = target: GORASP1, Q9BQQ3
# SNTA1, Q13424 = target: T6, SNTA1, Q13424
# Inadl_10, Q8NI35 = target: Inadl_10, Q8NI35
# LIN7B, Q9HAP6 = target: T7, LIN7B, Q9HAP6
# PARD3_3, Q8TEW0 = target: PARD3_3, Q8TEW0
# Inadl_4, Q8NI35 = target: Inadl_4, Q8NI35
# Inadl_1, Q8NI35 = target: Inadl_1, Q8NI35
# LNX1_2, Q8TBB1 = target: LNX1_2, Q8TBB1
# HTRA3, P83110 = target: T8, HTRA3, P83110
# MAGI2_3, Q86UL8 = target: MAGI2_3, Q86UL8
# APBA1_1, Q02410 = target: T9, APBA1_1, Q02410
# DLG4_2, P78352 = target: DLG4_2, P78352
# Sequence of DLG4_2, P78352 (P78352 155-259): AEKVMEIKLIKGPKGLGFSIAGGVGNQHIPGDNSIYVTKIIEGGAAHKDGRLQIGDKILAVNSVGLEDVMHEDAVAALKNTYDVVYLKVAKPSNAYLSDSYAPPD
# Sequence of Inadl_4, Q8NI35 (Q8NI35 547-651): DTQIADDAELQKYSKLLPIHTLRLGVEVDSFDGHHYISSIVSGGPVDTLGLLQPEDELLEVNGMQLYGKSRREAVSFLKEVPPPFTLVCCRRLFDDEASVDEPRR
# Sequence of MAGI3_2, Q5TCQ9 (Q5TCQ9 398-503): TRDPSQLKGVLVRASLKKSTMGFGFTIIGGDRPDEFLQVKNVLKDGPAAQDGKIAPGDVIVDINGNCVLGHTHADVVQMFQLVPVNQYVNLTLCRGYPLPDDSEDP
# Sequence of Inadl_10, Q8NI35 (Q8NI35 1673-1763): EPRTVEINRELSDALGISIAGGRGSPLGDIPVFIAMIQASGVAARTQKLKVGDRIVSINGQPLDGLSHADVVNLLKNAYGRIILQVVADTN
# Sequence of LNX1_2, Q8TBB1 (Q8TBB1 371-470): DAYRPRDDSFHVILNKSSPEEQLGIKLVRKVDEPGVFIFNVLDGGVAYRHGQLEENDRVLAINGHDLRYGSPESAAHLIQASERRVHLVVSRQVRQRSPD
# Sequence of MAGI2_3, Q86UL8 (Q86UL8 600-682): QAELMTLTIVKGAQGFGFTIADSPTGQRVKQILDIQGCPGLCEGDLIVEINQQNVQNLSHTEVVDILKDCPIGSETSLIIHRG
# Sequence of MAST2, Q6P0Q8 (Q6P0Q8 1099-1202): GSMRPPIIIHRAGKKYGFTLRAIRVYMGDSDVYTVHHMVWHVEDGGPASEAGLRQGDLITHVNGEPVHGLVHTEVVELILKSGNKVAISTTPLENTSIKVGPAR
# Sequence of Inadl_1, Q8NI35 (Q8NI35 113-229): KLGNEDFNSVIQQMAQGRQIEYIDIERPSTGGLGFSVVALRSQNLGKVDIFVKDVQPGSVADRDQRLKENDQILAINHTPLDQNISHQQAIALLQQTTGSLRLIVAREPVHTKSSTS
# Sequence of Inadl_8, Q8NI35 (Q8NI35 1425-1530): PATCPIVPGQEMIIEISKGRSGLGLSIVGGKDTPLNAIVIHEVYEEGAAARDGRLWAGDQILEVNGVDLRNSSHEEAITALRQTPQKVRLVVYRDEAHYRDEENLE
# Sequence of MAGI1_2, Q96QZ7 (Q96QZ7 456-580): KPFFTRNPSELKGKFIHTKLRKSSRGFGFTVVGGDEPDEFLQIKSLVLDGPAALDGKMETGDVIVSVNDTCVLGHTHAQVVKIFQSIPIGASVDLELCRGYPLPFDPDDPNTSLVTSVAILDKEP
# Sequence of FRMPD2_1, Q68DX3 (Q68DX3 770-861): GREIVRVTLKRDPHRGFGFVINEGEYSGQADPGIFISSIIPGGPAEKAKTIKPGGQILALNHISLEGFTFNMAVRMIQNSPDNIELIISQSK
# Sequence of Inadl_6, Q8NI35 (Q8NI35 1058-1167): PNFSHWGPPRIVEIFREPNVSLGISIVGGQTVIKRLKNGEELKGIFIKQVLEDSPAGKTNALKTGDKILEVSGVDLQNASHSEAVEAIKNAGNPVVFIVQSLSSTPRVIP
# Sequence of LNX1_3, Q8TBB1 (Q8TBB1 500-596): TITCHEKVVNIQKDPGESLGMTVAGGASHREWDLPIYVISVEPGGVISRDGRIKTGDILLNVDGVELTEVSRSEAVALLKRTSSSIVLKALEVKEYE
# Sequence of GIPC2, Q8TF65 (Q8TF65 112-203): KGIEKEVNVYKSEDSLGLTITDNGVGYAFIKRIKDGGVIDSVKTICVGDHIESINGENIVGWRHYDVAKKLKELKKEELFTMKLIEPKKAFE
# Sequence of GORASP1, Q9BQQ3 (Q9BQQ3 1-208): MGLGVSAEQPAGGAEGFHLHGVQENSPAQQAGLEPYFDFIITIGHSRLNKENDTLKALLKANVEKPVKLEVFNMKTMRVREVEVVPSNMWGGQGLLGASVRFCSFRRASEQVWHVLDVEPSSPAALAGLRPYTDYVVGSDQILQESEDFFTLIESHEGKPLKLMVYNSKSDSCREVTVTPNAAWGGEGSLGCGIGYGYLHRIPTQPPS
# Sequence of NHERF4_4, Q86UT5 (Q86UT5 464-550): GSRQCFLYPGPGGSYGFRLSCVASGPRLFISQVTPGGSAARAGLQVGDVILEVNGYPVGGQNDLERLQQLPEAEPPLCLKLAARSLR
# Sequence of PARD3_3, Q8TEW0 (Q8TEW0 582-685): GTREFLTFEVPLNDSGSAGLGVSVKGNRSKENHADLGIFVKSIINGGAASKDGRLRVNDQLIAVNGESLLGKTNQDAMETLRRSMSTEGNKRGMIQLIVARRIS
# Sequence of FRMPD2_3, Q68DX3 (Q68DX3 1073-1166): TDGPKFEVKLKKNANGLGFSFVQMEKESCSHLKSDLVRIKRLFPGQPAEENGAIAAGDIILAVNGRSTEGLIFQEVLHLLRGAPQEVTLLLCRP
Binder,"pKd (GIPC2, Q8TF65)","pKd (FRMPD2_1, Q68DX3)","pKd (Inadl_6, Q8NI35)","pKd (DLG3_2, Q92796)","pKd (MAGI3_2, Q5TCQ9)","pKd (NHERF4_4, Q86UT5)","pKd (RHPN1, Q8TCX5)","pKd (FRMPD2_3, Q68DX3)","pKd (LNX1_3, Q8TBB1)","pKd (MAGI1_2, Q96QZ7)","pKd (NHERF3_3, Q5T2W1)","pKd (GOPC, Q9HD26)","pKd (FRMPD1, Q5SYB0)","pKd (MAST2, Q6P0Q8)","pKd (Inadl_8, Q8NI35)","pKd (ARHGEF11, O15085)","pKd (GORASP1, Q9BQQ3)","pKd (SNTA1, Q13424)","pKd (Inadl_10, Q8NI35)","pKd (LIN7B, Q9HAP6)",further results
"AKPSRISTVV [IQSEC2, Q5JU85]",below the threshold,3.53,below the threshold,5.33,5.42,below the threshold,below the threshold,below the threshold,below the threshold,4.82,below the threshold,4.35,below the threshold,5.11,3.89,4.59,4.11,4.12,below the threshold,3.73,"pKd (PARD3_3, Q8TEW0): below the threshold; pKd (Inadl_4, Q8NI35): below the threshold; pKd (Inadl_1, Q8NI35): below the threshold; pKd (LNX1_2, Q8TBB1): 3.52; pKd (HTRA3, P83110): 3.65; pKd (MAGI2_3, Q86UL8): 3.55; pKd (APBA1_1, Q02410): below the threshold; pKd (DLG4_2, P78352): 5.31"
"PEYLGLDVPV [ERBB2, P04626]",below the threshold,3.53,below the threshold,3.53,below the threshold,below the threshold,below the threshold,below the threshold,below the threshold,below the threshold,below the threshold,below the threshold,below the threshold,4.21,below the threshold,3.83,below the threshold,3.61,below the threshold,below the threshold,"pKd (PARD3_3, Q8TEW0): 3.52; pKd (Inadl_4, Q8NI35): below the threshold; pKd (Inadl_1, Q8NI35): below the threshold; pKd (LNX1_2, Q8TBB1): below the threshold; pKd (HTRA3, P83110): below the threshold; pKd (MAGI2_3, Q86UL8): 3.5; pKd (APBA1_1, Q02410): below the threshold; pKd (DLG4_2, P78352): 3.48"
"DDPSTAETVL [ABCA7, Q8IZY2]",below the threshold,below the threshold,3.98,4.37,below the threshold,below the threshold,4.92,below the threshold,below the threshold,below the threshold,below the threshold,below the threshold,below the threshold,5.64,below the threshold,3.98,below the threshold,4.71,below the threshold,3.89,"pKd (PARD3_3, Q8TEW0): 4.56; pKd (Inadl_4, Q8NI35): below the threshold; pKd (Inadl_1, Q8NI35): below the threshold; pKd (LNX1_2, Q8TBB1): below the threshold; pKd (HTRA3, P83110): below the threshold; pKd (MAGI2_3, Q86UL8): 3.71; pKd (APBA1_1, Q02410): below the threshold; pKd (DLG4_2, P78352): 3.7"
"HLRARKSEWV [GJD4, Q96KN9]",below the threshold,4.24,below the threshold,4.33,4.04,below the threshold,below the threshold,below the threshold,below the threshold,below the threshold,below the threshold,below the threshold,below the threshold,below the threshold,3.59,below the threshold,5,below the threshold,below the threshold,3.81,"pKd (PARD3_3, Q8TEW0): below the threshold; pKd (Inadl_4, Q8NI35): below the threshold; pKd (Inadl_1, Q8NI35): below the threshold; pKd (LNX1_2, Q8TBB1): 3.75; pKd (HTRA3, P83110): 5.81; pKd (MAGI2_3, Q86UL8): below the threshold; pKd (APBA1_1, Q02410): below the threshold; pKd (DLG4_2, P78352): 4.11"
